The values that follow are results of earlier work, collected in PMC5764468.

This data set deals with calmodulin (Homo sapiens) (UniProt P0DP23).

Take CyaA AC domain AC (from UniProt P0DKX7): the Kd is < 0.1 nM.

As a reminder, the Kd is the concentration at which binding is half-saturated.
